Key:
[1] = target: BonA, full-length soluble recombinant protein (mature, lacking its signal sequence) (Acinetobacter baumannii); assay: AUC; sedimentation velocity, 0.25 to 2 mg/ml, 40,000 rpm, 20°C, 50 mM Tris-200 mM NaCl pH 7.9
[2] = target: BonA, full-length soluble recombinant protein (mature, lacking its signal sequence) (Acinetobacter baumannii); assay: SEC-MALS; 100 μl at 1 to 5 mg/ml on Superdex 200 10/300 GL, 20 mM Tris-200 mM NaCl pH 7.9
[3] = target: BonA, endogenous in A. baumannii ATCC 19606 membranes (Acinetobacter baumannii ATCC 19606 (endogenous)); assay: native gel or EMSA; 5 to 16% blue-native PAGE of 50 μg total membranes solubilized in detergent, Western blot with anti-BonA antiserum
[4] = target: BonA-C45, 45-aa C-terminally truncated BonA (Acinetobacter baumannii); assay: SEC-MALS; 100 μl at 1 to 5 mg/ml on Superdex 200 10/300 GL, 20 mM Tris-200 mM NaCl pH 7.9

Substance: BonA, full-length soluble recombinant protein (mature, lacking its signal sequence) (natural protein)
- stoichiometry N [1]: 10
- stoichiometry N [2]: 10

Substance: BonA, endogenous in A. baumannii ATCC 19606 membranes (natural protein)
- stoichiometry N [3]: 2

Substance: BonA-C45, 45-aa C-terminally truncated BonA (domain or fragment)
- stoichiometry N [4]: 10
